Results as given in patent US20140154243A1 (Amgen, published 2014).

Tests used:
[1] = target: human HGF-avidin fusion protein with the point mutation hHGFC561R (chicken; human, UniProt P02701 25-152; P14210 32-728, limits assumed); experiment: avidin fusion protein captured on biotin-coated beads, PE anti-human F(ab')2, FACS
Protocol: (§1) These constructs were expressed and subjected to binding analysis as described in Examples 8C and 8D. […] The resulting bead-protein complexes were labeled by adding FITC labeled anti-avidin antibody (Vector Lab, Burlingame, Calif., Cat. # SP-2040). The presence of antibodies to HGF was determined by adding phycoerythrin (PE) labeled goat anti-human F(ab′)2 antibody (Southern Biotech Associates, Inc, Birmingham, Ala., Cat #2043-09). Those samples were then subjected to Fluorescence Activated Cell Sorter (FACS) analysis. Bead complexes labeled by FITC (which indicated the presence of avidin) and/or PE (which indicated the presence of antibody to HGF) were detected on a Becton Dickinson Bioscience FACScan (BD, Franklin Lakes, N.J.). In some cases, after expression normalization using FITC, single-color FACS analysis was performed following antibody binding by the PE label. This method increased the sensitivity of the assay and aided the measurement of binding with constructs that were not expressed at very high levels.

[2] = target: human HGF-avidin fusion protein with the point mutation hHGFG555E (chicken; human, UniProt P02701 25-152; P14210 32-728, limits assumed); experiment: as above
human HGF-avidin fusion protein with the point mutation hHGFG555E, sequence (P02701 other isoform, or with tags, fused parts or gaps limits assumed): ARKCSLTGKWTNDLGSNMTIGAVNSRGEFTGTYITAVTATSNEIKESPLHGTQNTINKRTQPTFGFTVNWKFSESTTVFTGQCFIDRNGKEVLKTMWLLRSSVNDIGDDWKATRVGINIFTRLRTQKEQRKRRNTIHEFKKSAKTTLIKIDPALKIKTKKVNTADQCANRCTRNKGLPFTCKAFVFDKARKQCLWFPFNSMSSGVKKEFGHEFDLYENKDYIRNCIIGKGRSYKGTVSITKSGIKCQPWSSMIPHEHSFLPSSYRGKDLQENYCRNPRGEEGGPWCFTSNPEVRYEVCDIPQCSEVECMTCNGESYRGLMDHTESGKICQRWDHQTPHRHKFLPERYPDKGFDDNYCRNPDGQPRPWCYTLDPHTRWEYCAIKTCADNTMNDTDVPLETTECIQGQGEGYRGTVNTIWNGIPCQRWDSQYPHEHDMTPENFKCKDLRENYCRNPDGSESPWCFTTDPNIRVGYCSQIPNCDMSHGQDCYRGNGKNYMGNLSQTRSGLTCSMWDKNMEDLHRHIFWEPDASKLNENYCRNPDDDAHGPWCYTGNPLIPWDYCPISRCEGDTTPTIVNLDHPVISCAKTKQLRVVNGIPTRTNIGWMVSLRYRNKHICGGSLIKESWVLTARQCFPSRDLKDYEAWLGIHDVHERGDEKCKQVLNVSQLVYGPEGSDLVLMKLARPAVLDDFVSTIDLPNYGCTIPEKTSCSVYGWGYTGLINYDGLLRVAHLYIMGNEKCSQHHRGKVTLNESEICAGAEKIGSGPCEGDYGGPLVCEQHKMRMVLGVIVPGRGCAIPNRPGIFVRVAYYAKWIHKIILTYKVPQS
Protocol: as §1

[3] = target: human HGF-avidin fusion protein with the point mutation hHGFN601S (chicken; human, UniProt P02701 25-152; P14210 32-728, limits assumed); experiment: as above
human HGF-avidin fusion protein with the point mutation hHGFN601S, sequence (P02701 other isoform, or with tags, fused parts or gaps limits assumed): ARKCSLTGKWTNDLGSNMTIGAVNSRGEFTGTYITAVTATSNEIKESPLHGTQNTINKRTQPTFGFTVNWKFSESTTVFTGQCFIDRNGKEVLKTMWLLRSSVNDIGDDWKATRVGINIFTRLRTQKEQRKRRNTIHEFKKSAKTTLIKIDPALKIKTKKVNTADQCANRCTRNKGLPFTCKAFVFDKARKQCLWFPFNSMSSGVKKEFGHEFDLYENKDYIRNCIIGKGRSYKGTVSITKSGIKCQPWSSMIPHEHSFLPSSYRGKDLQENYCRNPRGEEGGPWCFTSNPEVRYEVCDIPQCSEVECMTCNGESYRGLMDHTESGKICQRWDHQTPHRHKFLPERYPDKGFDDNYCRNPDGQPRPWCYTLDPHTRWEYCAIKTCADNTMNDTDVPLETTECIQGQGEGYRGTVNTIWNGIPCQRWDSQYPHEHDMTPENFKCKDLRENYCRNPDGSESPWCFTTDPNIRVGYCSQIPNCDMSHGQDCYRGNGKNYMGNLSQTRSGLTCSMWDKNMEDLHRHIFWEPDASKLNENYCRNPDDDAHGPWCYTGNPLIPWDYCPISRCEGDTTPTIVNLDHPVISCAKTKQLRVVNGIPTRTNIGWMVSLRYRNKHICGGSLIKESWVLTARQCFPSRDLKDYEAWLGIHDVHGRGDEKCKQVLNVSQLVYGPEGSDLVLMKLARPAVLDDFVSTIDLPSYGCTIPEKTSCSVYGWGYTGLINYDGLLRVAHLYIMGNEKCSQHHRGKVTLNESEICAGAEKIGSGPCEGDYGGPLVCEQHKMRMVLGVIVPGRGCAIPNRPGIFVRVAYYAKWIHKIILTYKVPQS
Protocol: as §1

[4] = target: human HGF-avidin fusion protein with the point mutation hHGFR647Q (chicken; human, UniProt P02701 25-152; P14210 32-728, limits assumed); experiment: as above
human HGF-avidin fusion protein with the point mutation hHGFR647Q, sequence (P02701 other isoform, or with tags, fused parts or gaps limits assumed): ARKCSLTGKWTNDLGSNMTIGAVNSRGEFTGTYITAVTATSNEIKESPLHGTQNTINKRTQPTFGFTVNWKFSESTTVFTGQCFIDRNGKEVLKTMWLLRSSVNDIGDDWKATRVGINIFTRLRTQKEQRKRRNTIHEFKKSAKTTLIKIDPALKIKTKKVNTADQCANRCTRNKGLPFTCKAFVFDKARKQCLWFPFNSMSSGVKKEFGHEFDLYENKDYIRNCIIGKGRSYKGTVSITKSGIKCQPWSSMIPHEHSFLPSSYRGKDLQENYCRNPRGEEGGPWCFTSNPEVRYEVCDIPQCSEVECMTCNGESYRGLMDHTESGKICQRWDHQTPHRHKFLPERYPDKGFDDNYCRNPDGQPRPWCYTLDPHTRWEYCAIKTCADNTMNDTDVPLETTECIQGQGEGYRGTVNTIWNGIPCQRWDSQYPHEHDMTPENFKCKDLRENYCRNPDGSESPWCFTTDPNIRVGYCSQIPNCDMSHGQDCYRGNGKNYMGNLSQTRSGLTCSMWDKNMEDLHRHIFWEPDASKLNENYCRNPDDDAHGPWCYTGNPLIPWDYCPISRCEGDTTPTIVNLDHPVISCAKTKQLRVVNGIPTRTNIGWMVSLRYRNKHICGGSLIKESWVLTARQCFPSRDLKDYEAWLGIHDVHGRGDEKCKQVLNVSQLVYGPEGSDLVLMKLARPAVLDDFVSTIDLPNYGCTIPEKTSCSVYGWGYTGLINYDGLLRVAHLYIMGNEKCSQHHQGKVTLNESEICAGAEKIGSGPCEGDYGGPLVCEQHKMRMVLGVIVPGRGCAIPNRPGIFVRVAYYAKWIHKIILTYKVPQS
Protocol: as §1

[5] = target: human HGF-avidin fusion protein with the point mutation hHGFD592N (chicken; human, UniProt P02701 25-152; P14210 32-728, limits assumed); experiment: as above
Protocol: as §1

[6] = target: T1, human HGF-avidin fusion protein with a two amino acid insertion (mouse amino acids 540N and 541K) (chicken; human, UniProt P02701 25-152; P14210 32-728, limits assumed); experiment: as above
T1 construct: also called hHGF DK insertion
T1 sequence (P02701 other isoform, or with tags, fused parts or gaps limits assumed): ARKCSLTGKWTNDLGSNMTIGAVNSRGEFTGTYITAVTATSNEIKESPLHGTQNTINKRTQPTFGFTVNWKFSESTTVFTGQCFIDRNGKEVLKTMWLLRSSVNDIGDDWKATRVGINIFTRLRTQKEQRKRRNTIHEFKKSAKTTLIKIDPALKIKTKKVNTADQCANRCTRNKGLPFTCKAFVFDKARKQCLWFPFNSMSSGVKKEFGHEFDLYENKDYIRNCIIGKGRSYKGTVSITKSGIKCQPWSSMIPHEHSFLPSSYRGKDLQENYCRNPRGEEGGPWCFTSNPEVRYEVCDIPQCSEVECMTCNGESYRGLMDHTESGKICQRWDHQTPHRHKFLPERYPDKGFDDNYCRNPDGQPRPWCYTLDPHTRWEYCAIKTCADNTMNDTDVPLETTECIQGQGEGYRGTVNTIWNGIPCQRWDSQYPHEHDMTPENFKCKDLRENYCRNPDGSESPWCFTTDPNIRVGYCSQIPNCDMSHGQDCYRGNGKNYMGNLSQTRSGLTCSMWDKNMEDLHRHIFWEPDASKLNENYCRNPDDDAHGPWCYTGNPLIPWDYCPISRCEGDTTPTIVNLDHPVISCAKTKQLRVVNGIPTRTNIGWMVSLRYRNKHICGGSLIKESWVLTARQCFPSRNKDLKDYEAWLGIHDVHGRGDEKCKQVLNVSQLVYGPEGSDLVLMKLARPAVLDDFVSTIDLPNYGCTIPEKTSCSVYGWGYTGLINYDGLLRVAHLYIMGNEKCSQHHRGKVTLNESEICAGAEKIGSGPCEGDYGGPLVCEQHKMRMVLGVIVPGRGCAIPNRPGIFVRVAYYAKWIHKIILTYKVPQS
Protocol: as §1

[7] = target: T2, human hepatocyte growth factor (HGF) (human, UniProt P14210 32-728); experiment: BIAcore 3000, equilibrium/solution method: antibody (0.01-50 nM) incubated with human HGF (0.05 nM and 1 nM), free HGF measured on a chip carrying the same antibody
T2 construct: Recombinant protein; The mature protein is a heterodimer of the alpha and beta subunits; also called human HGF; full length HGF
T2 sequence (P14210 32-728 limits assumed): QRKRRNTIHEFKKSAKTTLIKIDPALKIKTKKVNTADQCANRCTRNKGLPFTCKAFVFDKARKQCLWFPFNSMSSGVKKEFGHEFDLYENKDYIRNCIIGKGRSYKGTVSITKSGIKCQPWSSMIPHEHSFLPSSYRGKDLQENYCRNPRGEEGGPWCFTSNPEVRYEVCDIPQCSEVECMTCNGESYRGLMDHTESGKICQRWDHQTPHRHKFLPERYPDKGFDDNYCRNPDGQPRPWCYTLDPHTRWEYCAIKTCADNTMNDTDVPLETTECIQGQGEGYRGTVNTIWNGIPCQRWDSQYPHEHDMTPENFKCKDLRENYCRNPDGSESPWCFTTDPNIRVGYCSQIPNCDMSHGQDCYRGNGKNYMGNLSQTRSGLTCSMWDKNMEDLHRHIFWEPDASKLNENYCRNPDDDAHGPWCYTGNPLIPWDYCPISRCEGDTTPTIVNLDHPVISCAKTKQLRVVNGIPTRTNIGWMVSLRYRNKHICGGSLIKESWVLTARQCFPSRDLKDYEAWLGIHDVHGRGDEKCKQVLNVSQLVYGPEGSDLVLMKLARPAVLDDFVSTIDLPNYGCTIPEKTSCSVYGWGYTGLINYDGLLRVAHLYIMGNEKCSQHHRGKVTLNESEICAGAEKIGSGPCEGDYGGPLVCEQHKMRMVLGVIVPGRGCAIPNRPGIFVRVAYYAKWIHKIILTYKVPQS
Protocol: That method was performed with a BIAcore®3000 (Biacore, Inc., Piscataway, N.J.) using PBS with 0.005% P20 surfactant (BIAcore, Inc. Piscataway, N.J.) as running buffer. The four antibodies to HGF were separately immobilized to research grade CM5 sensor chips (Biacore, Inc. Piscataway, N.J.) via primary amine groups using an Amine Coupling Kit (Biacore, Inc. Piscataway, N.J.) following the manufacturer's instructions.
In separate assays, each of the four antibodies to HGF, over a range of concentrations (from 0.01 nM to 50 nM) was separately incubated with each of two different concentrations (0.05 nM and 1 nM) of human HGF in PBS with 0.005% P-20 and 0.1 mg/mL BSA at room temperature for at least six hours. Each of those samples was then injected over a surface of a CM5 sensor chip onto which the same antibody to HGF had been immobilized. The binding signal obtained was proportional to the free HGF in solution. The dissociation equilibrium constant (KD) was obtained from nonlinear regression analysis of the competition curves using a dual-curve one-site homogeneous binding model (KinExA software, Sapidyne Instruments Inc., Boise Id.).

[8] = target: T2, human hepatocyte growth factor (HGF); experiment: neutralization ELISA (left table): inhibition of the binding of soluble Met (2 nM) to plate-coated HGF, detected with biotinylated anti-cMetR antibody and Eu-streptavidin; column head 'IC50 IP (nM)'
Protocol: A neutralization ELISA assay was developed to assess whether the antibodies discussed in Example 6 could interrupt Met-HGF binding. Delphia 96-well plates (Cat#: AAAND-0001, Wallac Inc., Gaithersburg, Md.) were coated with HGF by adding 100 μl of HGF at 6.25 μg/ml per well. The plates were incubated at 37° C. for 1 hour or at 4° C. overnight. The plates were then blocked with 5% BSA (Cat#50-61-00, KPL, Gaithersburg, Md.) in PBS containing 0.1% Tween 20 for 1 hour at room temperature with shaking.
Test samples were prepared by separately mixing soluble Met (2 nM, 0.256 μg/ml) with different concentrations of a particular antibody to HGF being tested. The concentrations tested were: 667 nM, 223 nM, 74.1 nM, 24.7 nM, 8.2 nM, 2.7 nM, 0.91 nM, 0.30 nM, 0.10 nM, and 0.034 nM. A volume of 100 μl of a test sample was added to each well of the plates. The plates were then incubated at 4° C. overnight and then washed 4 times with PBS containing 0.1% Tween 20. Next, 100 μl per well of Biotinylated anti-cMetR antibody (Cat#: BAF358, R&D Systems Inc., Minneapolis, Minn.) at 2 μg/ml, was added. […] The plates were then incubated for 2 hours with shaking, and were washed 4 times with PBS containing 0.1% Tween 20. Eu-streptavidin (1:1000 dilution in Assay buffer) (Cat#1244-360, Wallac Inc., Gaithersburg, Md.) was added and the plates were shaken at room temperature for 1 hour. The plates were then washed 4 times with PBS containing 0.1% Tween 20. Next, 100 μl of enhancement buffer (Wallac Inc., Cat#: 1244-105, Gaithersburg, Md.) was added. After at least for 5 minutes, the plates were read using Europium method on Victor 2 (1420 Multilabel Counter, Wallac Inc., Gaithersburg, Md.).
Percent inhibition of Met binding to HGF (i.e. neutralization) was calculated and IC₅₀ values were determined using the 4 parameter fit equation Excelfit, Version 2.0.6, (Microsoft Inc, Seattle, Wash.). In the presence of the antibodies to HGF discussed in Examples 6, Met binding to HGF was neutralized.

human HGF-avidin fusion protein with the point mutation hHGFC561R, sequence (P02701 other isoform, or with tags, fused parts or gaps limits assumed): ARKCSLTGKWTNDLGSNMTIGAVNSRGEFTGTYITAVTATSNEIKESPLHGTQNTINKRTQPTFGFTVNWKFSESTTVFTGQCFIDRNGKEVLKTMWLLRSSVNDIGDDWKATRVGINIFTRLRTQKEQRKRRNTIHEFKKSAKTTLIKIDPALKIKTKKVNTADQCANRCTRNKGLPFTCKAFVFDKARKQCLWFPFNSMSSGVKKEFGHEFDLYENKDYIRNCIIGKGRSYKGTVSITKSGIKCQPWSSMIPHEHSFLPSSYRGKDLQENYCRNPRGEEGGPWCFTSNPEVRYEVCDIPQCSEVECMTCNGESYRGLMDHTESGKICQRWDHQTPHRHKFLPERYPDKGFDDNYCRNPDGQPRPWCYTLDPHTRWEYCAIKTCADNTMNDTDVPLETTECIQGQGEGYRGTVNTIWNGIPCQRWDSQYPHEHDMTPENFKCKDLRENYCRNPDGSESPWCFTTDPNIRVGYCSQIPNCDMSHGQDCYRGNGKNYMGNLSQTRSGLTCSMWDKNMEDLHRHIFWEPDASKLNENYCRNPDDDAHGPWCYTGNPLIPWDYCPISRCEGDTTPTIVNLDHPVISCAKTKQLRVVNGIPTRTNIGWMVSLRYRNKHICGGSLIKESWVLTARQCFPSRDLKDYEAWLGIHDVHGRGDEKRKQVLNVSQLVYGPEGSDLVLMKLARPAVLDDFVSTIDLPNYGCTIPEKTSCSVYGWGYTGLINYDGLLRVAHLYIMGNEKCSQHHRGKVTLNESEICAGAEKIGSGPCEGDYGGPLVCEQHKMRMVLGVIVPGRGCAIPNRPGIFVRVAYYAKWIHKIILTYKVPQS

B1: antibody 2.4.4 (antibody, human IgG2, kappa, V domains shown)
VH: QVQLKESGPGLVKPSQTLSLTCTVSGGSISSGVYYWSWIRQHPGKGLEWIGYFYYSGNTYHNPSLKSRVTISVDTSKNQFSLKLSSVTAADTAVYYCARDRSGYDHPDAFDIWGQGTMVTVSS
VL: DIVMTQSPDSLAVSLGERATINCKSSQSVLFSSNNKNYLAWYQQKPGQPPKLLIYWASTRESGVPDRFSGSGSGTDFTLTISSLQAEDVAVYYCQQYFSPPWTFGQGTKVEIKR
notes: also called FITC-labeled antibody 2.4.4
[1]
  binding result: no binding
[2]
  binding result: binds
[3]
  binding result: binds
[4]
  binding result: binds
[5]
  binding result: binds
[6]
  binding result: no binding
[7]
  Kd: < 0.01 nM
[8]
  IC50: 5.1 nM

B2: antibody 2.12.1 (antibody, human IgG2, kappa, V domains shown)
VH: QVQLQESGPGLVKPSETLSLTCTVSGGSISIYYWSWIRQPPGKGLEWIGYVYYSGSTNYNPSLKSRVTISVDTSKNQFSLKLNSVTAADTAVYYCARGGYDFWSGYFDYWGQGTLVTVSS
VL: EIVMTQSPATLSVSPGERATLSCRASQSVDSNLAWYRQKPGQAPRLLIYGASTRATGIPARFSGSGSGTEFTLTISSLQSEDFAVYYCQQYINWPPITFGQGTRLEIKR
[1]
  binding result: no binding
[2]
  binding result: no binding
[3]
  binding result: binds
[4]
  binding result: binds
[5]
  binding result: binds
[6]
  binding result: no binding
[7]
  Kd: 0.054 nM
[8]
  IC50: 2.1 nM
